# Assays:
# AfNpsr; A. fulgidus Npsr = biological target: T1, AfNpsr; A. fulgidus Npsr (Archaeoglobus fulgidus, UniProt O29847); assay: X-ray crystal structure, […] Å; type: binding; conditions: tightly bound catalytic CoA in active site near Cys 42
# T1 construct: gene AF_0400; codon-optimized full-length gene in pET21b+, C-terminal His6-tag, E. coli BL21(DE3); FAD added; FAD domain 1-448, rhodanese domain 449-550
# [1] = substrate: CC(C)(COP(=O)(O)OP(=O)(O)OC[C@H]1O[C@@H](n2cnc3c(N)ncnc32)[C@H](O)[C@@H]1OP(=O)(O)O)[C@@H](O)C(=O)NCCC(=O)NCCSS; assay: NADH oxidation at A340, Michaelis-Menten fit; type: biochemical, Archaeoglobus fulgidus; conditions: 100 μM NADH, aerobic, 50 mM sodium phosphate pH 7.5, 70°C, persulfide made in situ from disulfide + 2-fold sodium sulfide, oxidase background not subtracted
# Source text: (§1) NADH oxidation at A340, Michaelis-Menten fit on AfNpsr; A. fulgidus Npsr
# [2] = substrate: N[C@@H](CSS)C(=O)O; assay: NADH oxidation at A340, Michaelis-Menten fit; type: biochemical, Archaeoglobus fulgidus; conditions: 100 μM NADH, aerobic, 50 mM sodium phosphate pH 7.5, 70°C, persulfide made in situ from disulfide + 2-fold sodium sulfide, oxidase background not subtracted
# Source text: as §1
# [3] = substrate: O=C(O)c1cc(SSc2ccc([N+](=O)[O-])c(C(=O)O)c2)ccc1[N+](=O)[O-]; assay: TNB formation at A412, Michaelis-Menten fit; type: biochemical, Archaeoglobus fulgidus; conditions: 100 μM NADH, aerobic, 50 mM sodium phosphate pH 7.5, 70°C, buffer background subtracted
# Source text: TNB formation at A412, Michaelis-Menten fit on AfNpsr; A. fulgidus Npsr
# [4] = substrate: NC(=O)C1=CN([C@@H]2O[C@H](COP(=O)(O)OP(=O)(O)OC[C@H]3O[C@@H](n4cnc5c(N)ncnc54)[C@H](O)[C@@H]3O)[C@@H](O)[C@H]2O)C=CC1; assay: NADH oxidase, A340, Michaelis-Menten fit; type: biochemical, Archaeoglobus fulgidus; conditions: aerobic, O2 as acceptor, no di-, per- or polysulfide, 50 mM sodium phosphate pH 7.5, 70°C
# Source text: NADH oxidase, A340, Michaelis-Menten fit on AfNpsr; A. fulgidus Npsr
"X-ray crystal structure, 3.1 Å (AfNpsr; A. fulgidus Npsr)",Molecule,Km [1],kcat [1],kcat/Km [1],Km [2],kcat [2],kcat/Km [2],Km [3],kcat [3],kcat/Km [3],Km [4],kcat [4],kcat/Km [4]
"In AfNpsr, CoA is deeply buried",CC(C)(COP(=O)(O)OP(=O)(O)OC[C@H]1O[C@@H](n2cnc3c(N)ncnc32)[C@H](O)[C@@H]1OP(=O)(O)O)[C@@H](O)C(=O)NCCC(=O)NCCS [CoA],–,–,–,–,–,–,–,–,–,–,–,–
–,"AfNpsr; A. fulgidus Npsr (Archaeoglobus fulgidus DSM 4304) (protein, codon-optimized full-length gene in pET21b+, C-terminal His6-tag, E. coli BL21(DE3); FAD added; FAD domain 1-448, rhodanese domain 449-550) MNVVVIGGGAAGLKAASRIRRKDGDASITVVEAGKYVSLGRCGLPYYVGGLVHEVDNLRETTYGAVRDEAYFKKLKNIDVLTETVATEIDRSRKTVKIVRNGSEDELNYDYLVIATGARPAKPPIEGIEAEGVVTLTSAEEAEKIIEMWEEGAEKAVVIGAGFIGLESAEALKNLDMEVTVIEMMDRVAPAMLDREMAVLVENHLREKGVNVVTSTRVEKIVSQDDKVRAVIANGKEYPADVVVVATGIKPNSELAEKAGLKIGETGAIWVDEYMRTSDESIYAGGDCVETTCLVTGKKIIAPFGDVANKQGRVIGENITGGRAVFPGVIRTAIFKVFDFTAASAGVNEQMAKEAGLDYFTVIAPSPDRAHYYPQANYIRLKLIVEKGSWRVIGAQGVGMGEVAKRIDVLSTAIQAGMTIDQLANLDLAYAPPYSPALDPVITIANVAMNKRDGLFEGINVFELKEKLEKEDIVILDVRSEEEFKTRRIESEKVIHIPILELRERLDEIPRDKEIVVVCAIGLRSFEASRILKHAGFEKVKILEGGMAFWF",547 ± 41 µM,13.2 ± 0.3 s⁻¹,24100 ± 1400 M⁻¹ s⁻¹,3410 ± 630 µM,230 ± 23 s⁻¹,67600 ± 11000 M⁻¹ s⁻¹,743 ± 196 µM,2.44 ± 0.14 s⁻¹,3280 ± 480 M⁻¹ s⁻¹,20.6 ± 5.1 µM,7.15 ± 0.51 s⁻¹,347000 ± 75000 M⁻¹ s⁻¹

# From publication PMC7969121, “Structural and Kinetic Characterization of Hyperthermophilic NADH-Dependent Persulfide Reductase from Archaeoglobus fulgidus” (Archaea, 2021)
